From publication PMC7378552, “Impact of the nisin modification machinery on the transport kinetics of NisT” (Scientific Reports, 2020)
One block for each molecule: values may come before it.

T1: NisT (10HNisT) (Lactococcus lactis, UniProt Q03203)
T1 construct: full length, N-terminal deca-His tag with linker (tag kept), homologous expression in L. lactis NZ9000, solubilised in Fos-choline-16, assayed in CYMAL5
T1 sequence (Q03203 1-600): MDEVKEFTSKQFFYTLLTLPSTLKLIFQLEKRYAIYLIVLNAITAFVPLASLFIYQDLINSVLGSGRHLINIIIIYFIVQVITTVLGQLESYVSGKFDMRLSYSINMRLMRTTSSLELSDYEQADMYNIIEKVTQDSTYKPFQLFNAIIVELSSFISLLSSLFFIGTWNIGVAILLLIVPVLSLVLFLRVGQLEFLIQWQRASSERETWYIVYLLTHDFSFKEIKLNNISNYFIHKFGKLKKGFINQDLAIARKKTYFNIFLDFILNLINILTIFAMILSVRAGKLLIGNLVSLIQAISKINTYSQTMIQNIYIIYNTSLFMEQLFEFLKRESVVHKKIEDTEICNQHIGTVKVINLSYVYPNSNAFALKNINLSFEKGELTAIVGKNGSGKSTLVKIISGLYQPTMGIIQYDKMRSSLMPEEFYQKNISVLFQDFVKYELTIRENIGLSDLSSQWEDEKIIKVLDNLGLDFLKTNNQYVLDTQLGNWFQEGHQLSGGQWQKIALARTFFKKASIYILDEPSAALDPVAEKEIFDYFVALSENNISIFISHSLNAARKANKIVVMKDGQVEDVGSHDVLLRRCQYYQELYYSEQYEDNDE

T2: NisB (dehydratase of nisin precursor peptide) (Lactococcus lactis, UniProt P20103 1-993)
T2 construct: NisB, nisin dehydratase of Lactococcus lactis; NisB alone was not held on Ni-NTA beads, so it probably bore no His tag in the assay; source: purified
T2 sequence (looked up): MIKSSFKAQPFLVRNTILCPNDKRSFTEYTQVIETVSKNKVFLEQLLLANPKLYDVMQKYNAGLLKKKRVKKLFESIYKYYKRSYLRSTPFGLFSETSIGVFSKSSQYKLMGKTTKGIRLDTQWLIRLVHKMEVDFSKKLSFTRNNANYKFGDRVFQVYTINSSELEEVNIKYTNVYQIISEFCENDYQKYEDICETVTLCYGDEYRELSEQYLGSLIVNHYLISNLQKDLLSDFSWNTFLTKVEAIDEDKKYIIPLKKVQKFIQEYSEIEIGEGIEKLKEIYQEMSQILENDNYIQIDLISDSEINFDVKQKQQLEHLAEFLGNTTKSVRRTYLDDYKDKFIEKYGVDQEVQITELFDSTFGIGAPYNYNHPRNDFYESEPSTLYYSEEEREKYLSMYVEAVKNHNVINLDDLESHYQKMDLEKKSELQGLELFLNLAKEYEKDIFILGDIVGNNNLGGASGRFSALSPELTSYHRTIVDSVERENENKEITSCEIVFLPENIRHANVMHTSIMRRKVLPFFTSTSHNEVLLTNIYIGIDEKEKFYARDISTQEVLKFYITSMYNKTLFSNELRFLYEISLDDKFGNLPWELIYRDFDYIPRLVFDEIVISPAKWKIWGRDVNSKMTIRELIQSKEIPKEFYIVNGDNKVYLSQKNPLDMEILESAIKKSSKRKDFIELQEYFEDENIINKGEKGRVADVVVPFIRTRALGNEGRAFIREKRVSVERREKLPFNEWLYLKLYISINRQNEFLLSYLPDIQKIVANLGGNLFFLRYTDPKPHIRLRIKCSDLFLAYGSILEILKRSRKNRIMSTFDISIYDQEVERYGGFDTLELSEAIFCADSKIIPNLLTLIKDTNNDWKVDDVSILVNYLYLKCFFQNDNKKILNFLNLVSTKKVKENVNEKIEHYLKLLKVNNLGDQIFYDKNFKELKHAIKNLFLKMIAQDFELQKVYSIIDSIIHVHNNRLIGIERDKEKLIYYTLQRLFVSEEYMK

B1: NisC (cyclase of nisin precursor peptide) (enzyme, Lactococcus lactis, UniProt Q03202 1-418, looked up)
chain: MRIMMNKKNIKRNVEKIIAQWDERTRKNKENFDFGELTLSTGLPGIILMLAELKNKDNSKIYQKKIDNYIEYIVSKLSTYGLLTGSLYSGAAGIALSILHLREDDEKYKNLLDSLNRYIEYFVREKIEGFNLENITPPDYDVIEGLSGILSYLLLINDEQYDDLKILIINFLSNLTKENNGLISLYIKSENQMSQSESEMYPLGCLNMGLAHGLAGVGCILAYAHIKGYSNEASLSALQKIIFIYEKFELERKKQFLWKDGLVADELKKEKVIREASFIRDAWCYGGPGISLLYLYGGLALDNDYFVDKAEKILESAMQRKLGIDSYMICHGYSGLIEICSLFKRLLNTKKFDSYMEEFNVNSEQILEEYGDESGTGFLEGISGCILVLSKFEYSINFTYWRQALLLFDDFLKGGKRK
notes: NisC, nisin cyclase of Lactococcus lactis; NisC alone was not held on Ni-NTA beads, so it probably bore no His tag in the assay; source: purified
B2: 10HNisT (deca-histidine tagged NisT, ABC transporter of the nisin precursor peptide) (natural protein, Lactococcus lactis, UniProt Q03203 1-600, looked up)
chain: T1 sequence (Q03203 1-600)
notes: NisT, lanthipeptide ABC transporter of Lactococcus lactis; nisT gene amplified from genomic DNA of L. lactis NZ97000 and inserted into pNZ-SV10H; TMD is residues 1-347, the NBD begins at H348; Used in detergent (CYMAL5) in the pull-down; also called WT; source: L. lactis NZ9000 (pNZ-SV10HnisT), membranes solubilised with FC-16, purified (IMAC, SEC); not shown: His10 (deca-histidine), N-terminal, …

Tests used:
NisT (10HNisT) = target: T1, NisT (10HNisT); assay: malachite green phosphate release assay, Michaelis-Menten fit; assay type: biochemical; details: basal ATPase, no peptide substrate; 1 µM NisT, ATP 0-5 mM, 10 mM MgCl2, 0.4% CYMAL5, 30 °C, 30 min
[1] = target: B2; assay: pull-down; 10HNisT (~15 ug) immobilised on Ni-NTA magnetic beads; 10 uM NisB, NisC or NisBC added without substrate; activity assay buffer with 0.4% CYMAL5, 400 mM glutamate, 5 mM MgATP; 1 h at 30 C; six washes, elution with 50 mM EDTA; Western blot; details: both partners purified
[2] = target: T2, NisB (dehydratase of nisin precursor …); assay: as above; details: both partners purified

Km (NisT (10HNisT)): 370 ± 40 µM
Molecule: Nc1ncnc2c1ncn2[C@@H]1O[C@H](COP(=O)(O)OP(=O)(O)OP(=O)(O)O)[C@@H](O)[C@H]1O [ATP]

Molecule: B1
binding result [1]: binds

Molecule: B2
binding result [2]: binds
